Test results: patent publication US20180099057

What was measured:
[1] = system: T1, oligopeptide sequence GNWPWDWGWDWPWNWG (SEQ ID NO:8) tethering TCPP to the nanoparticle
T1 sequence: GNWPWDWGWDWPWNWG

[2] = system: T2, oligopeptide sequence GNwPwDwGwDwPwNwG (SEQ ID NO:9) tethering TCPP to the nanoparticle
T2 sequence: GNWPWDWGWDWPWNWG

[3] = system: T3, Cyanine 5.5 linked GR7G peptide (SEQ ID NO:5) on nanoplatform 1 / nanoplatform 2
T3 sequence: GRRRRRRRG

[4] = system: T4, oligopeptide sequence GRARQRLRARQG (SEQ ID NO:7) tethering TCPP to the nanoparticle
T4 sequence: GRARQRLRARQG

[5] = system: T5, oligopeptide sequence GRRRRRRRG (SEQ ID NO:5) tethering TCPP to the nanoparticle
T5 sequence: GRRRRRRRG

## indoleamine 2,3-dioxygenase 1
[1]
  limit of detection, nanoplatform fluorescence after 60 min. of incubation in HEPES buffer: the LOD for IDO1 is 10^-15 M
[2]
  calibration of nanoplatform fluorescence after 60 min. of incubation in HEPES buffer: the concentration of IDO1 can be determined over the range from 10^-7 to 10^-14 M

## tryptophan 2,3-dioxygenase
[1]
  calibration of nanoplatform fluorescence after 60 min. of incubation in HEPES buffer: the concentration of TDO can be determined over the whole range from 10^-7 to 10^-16 M
[2]
  calibration of nanoplatform fluorescence after 60 min. of incubation in HEPES buffer: TDO does not react with the substrate GNwPwDwGwDwPwNwG (SEQ ID NO:9), because it is specific for L-tryptophan

B1: arginase II (enzyme, UniProt P78540 23-354, looked up, species assumed)
Arginase-2, mitochondrial: VHSVAVIGAPFSQGQKRKGVEHGPAAIREAGLMKRLSSLGCHLKDFGDLSFTPVPKDDLYNNLIVNPRSVGLANQELAEVVSRAVSDGYSCVTLGGDHSLAIGTISGHARHCPDLCVVWVDAHADINTPLTTSSGNLHGQPVSFLLRELQDKVPQLPGFSWIKPCISSASIVYIGLRDVDPPEHFILKNYDIQYFSMRDIDRLGIQKVMERTFDLLIGKRQRPIHLSFDIDAFDPTLAPATGTPVVGGLTYREGMYIAEEIHNTGLLSALDLVEVNPQLATSEEEAKTTANLAVDVIASSFGQTREGGHIVYDQLPTPSSPDESENQARVRI
[3]
  cyanine 7.0 fluorescence (FRET) of nanoplatform 1 after 1 h of incubation at 37° C.: After incubation with arginase II, an increase in cyanine 7.0 fluorescence was observed
  limit of detection from the calibration curve of FIG. 13 (nanoplatform 2, printed as nanoplatform 1): the LOD (limit of detection) of nanoplatform 1 is 10^-10 M
  limit of detection of nanoplatform 1, quotient of integrated cyanine 5.5 and cyanine 7.0 fluorescence bands: the LOD (limit of detection) of nanoplatform 1 is down to the picomolar level
  limit of detection of nanoplatform 2, fluorescence increase over the whole range: its LOD is only at 10^-7 M of arginase II concentration
[4]
  limit of detection, TCPP fluorescence of the nanoplatform after 60 min. of incubation in HEPES buffer: The limit of detection is estimated to 2×10^-16M arginase II
[5]
  limit of detection, TCPP fluorescence of the nanoplatform after 60 min. of incubation in PBS: The limit of detection is 10^-15 M arginase II
